Laboratory results as given in EP1007561B1.

Molecular target: opiate receptors of rat brain homogenate ([3H]-Naloxone binding sites, non-selective binding assay) (rat)
Assay: displacement of 1.0 nM [3H]-Naloxone from rat brain homogenate, filtration; compound at 10 nM

In the case of “CCI-H (20% HSA•MPA-AEA3-Dyn A 2-17-NH2) (from UniProt P02768 25-609)”, the % INHIBITION AT 10 nM is reported as 1.28%.
